Article PMC12548384

Key:
[1] = target: T1, CmrR (Clostridioides difficile R20291) (UniProt A0A9R0CG09); test: EMSA; settings: EMSA: 15 nM probe, 1x binding buffer 20 mM Tris pH 8, 1 mM EDTA, 10 mM MgCl2, 100 mM NaCl, 5% glycerol, plus half volume protein in His6 buffer (10 mM Tris …)
T1 sequence: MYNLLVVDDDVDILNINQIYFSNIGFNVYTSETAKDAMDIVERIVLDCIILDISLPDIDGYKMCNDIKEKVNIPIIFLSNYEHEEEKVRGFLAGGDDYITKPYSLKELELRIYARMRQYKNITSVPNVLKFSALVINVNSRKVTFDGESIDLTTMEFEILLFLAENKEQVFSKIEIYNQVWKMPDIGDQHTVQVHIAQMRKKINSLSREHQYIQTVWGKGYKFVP

[2] = target: CmrT fused to the smbit or lgbit portion of split luciferase (C. difficile two-hybrid) (Clostridioides difficile R20291); test: split reporter (BiFC, NanoBiT); C. difficile bacterial two-hybrid with split luciferase (smbit, lgbit) from one ATc-inducible transcript; 200 ng/mL ATc for 1 h in BHIS-Tm10; Nano-Glo reagent; luminescence per OD600
[3] = target: CmrT-D9A fused to the smbit or lgbit portion of split luciferase (C. difficile two-hybrid) (Clostridioides difficile R20291); test: as above
[4] = target: CmrT-K102A fused to the smbit or lgbit portion of split luciferase (C. difficile two-hybrid) (Clostridioides difficile R20291); test: as above

Substance | binding [1] | also measured
ATTCAAGAATTGTTCAAAAATACTTAAGTATTATAGTCTAGTTTGTAAAGATATTATAAAATAATAATACTAGTTATATATGAAAATAAAACATTATAATTTGTAATAATTATAAAACTTGAGATTATGATTAAAATACCTTTGAATGGAGTGGTGTAATGTATAATTTACTGGTTGTAGATGATGATGTTG (double strand) [probe 4 (TSS4, 192 bp)] | binds more weakly | –
CTAGCCAATAGACAAGTTTCTAGAAAAATAATAAATTTATAAGTGAAAATGACTTTAAGCTCCATTCTCCAACAATCGGAGACTTTAATTAGTATTTAATAATAAATCTTAATGTTCAATACAATATTCAAGAATTGTTCAAAAATACTTAAG (double strand) [probe 9 (cmr switch in other orientation than probe 6)] | binds | –
CmrT fused to the smbit or lgbit portion of split luciferase (C. difficile two-hybrid) (natural protein) | – | log10 fold luciferase activity over the negative control [2]: 3.6 log10 fold
CmrT-D9A fused to the smbit or lgbit portion of split luciferase (C. difficile two-hybrid) (natural protein) | – | log10 fold change of luciferase signal against wild-type CmrT (log10 fold change) [3]: -1.27
CmrT-K102A fused to the smbit or lgbit portion of split luciferase (C. difficile two-hybrid) (natural protein) | – | log10 fold change of luciferase signal against wild-type CmrT (log10 fold change) [4]: -0.64
GCCAAAATTTCACCTATCAATAAAAATCTTAACGACTAATACTCTTATTTTCAAATTTTGCAACATTTTTGTTAATTTTAAAGCAAAAAAAGACTATGCAATATAAAAATTATATTCATAGCCGGTTGCACCACTAACTCCATATATCTCC (double strand) [probe 2] | no binding | –
GTATTTAATAATAAATCTTAATGTTCAATACAATATTCAAGAATTGTTCAAAAATACTTAAGTATTATAGTCTAGTTTGTAAAGATATTATAAAATAATAATACTAGTTATATATGAAAATAAAACATTATAATTTGTAATAATTATAAAACTTGAGATTATGATTAAAATACCTTTGAATGGAGTGGTGTAATGTATAATTTACTGGTTGTAGATGATGATGTTG (double strand) [probe 7 (TSS4, 226 bp)] | binds | –
TTGCACCACTAACTCCATATATCTCCAGATGCCCAATAATAAGATATACTTCTCAGTTTCTAAAATATTTTTATTAAAAATCTTTTATATATTTTCATAAATTTCTTTTTTATTCTAACATTGTAATATTATTTTGTCAATATTTCCATATTTTTAGATATAAGATACTAAAATACCTATTTTATCTAAAGATATTTATATTTCTACATTCAATAATAGACAATACCCTGCAAGTTAAAGCATC (double strand) [probe 1 (upstream of TSS1)] | no binding | –
